Assay results reported in US20170210824A1 (SALK INSTITUTE FOR BIOLOGICAL STUDIES, published 2017).
*1 amine or outer side, *2 acyl side, *3 side chain or, on linkers, in order; H or OH if unused. Where no end group is shown, it is not given here. [ ]: non-standard residue; d: D form. 3‑pTza = 3-phosphoryltriazolylalanine, non-hydrolysable phosphonate triazole analogue of 3-phosphohistidine, O=C([C@H](Cn1cc(P(=O)(O)O)nn1)N[*:1])[*:2]; pY = N[C@@H](Cc1ccc(OP(=O)(O)O)cc1)C(=O)O

How the values were obtained:
[1] = target: T1, Nck pY105 peptide (CGERLpYDLNMPAYVK); test: pTyr peptide dot blot
T1 construct: also called pTyr (NCK) peptide; pTyr peptide (Nck pY105)
T1 peptide: CGERL[pY]DLNMPAYVK

[2] = target: T2, Nck Y105 peptide (CGERLYDLNMPAYVK); test: pTyr peptide dot blot
T2 construct: also called unphosphorylated Nck peptide
T2 peptide: CGERLYDLNMPAYVK

[3] = target: T3, Eck (Ephrin A2) pY588 peptide (CLKPLKTpYVD); test: pTyr peptide dot blot
T3 construct: also called Eck/EphA2 pTyr peptide
T3 peptide: CLKPLKT[pY]VD

[4] = target: T4, Eck (Ephrin A2) Y588 peptide (CLKPLKTYVD); test: pTyr peptide dot blot
T4 construct: also called unphosphorylated Eck peptide
T4 peptide: CLKPLKTYVD

[5] = target: T5, FAK pY397 peptide (AVSVSETDDpYAEIIDEEDTYT) (phosphotyrosine at position 10 (pY397)); test: pTyr peptide dot blot
T5 construct: also called FAK pTyr peptide
T5 peptide: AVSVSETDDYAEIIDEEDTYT

[6] = target: T6, Peptide-1C (ACLY-like H760, 3-pTza) (N-terminus assumed; SMILES C[C@H](N)C(=O)NCC(=O)N[C@@H](C)C(=O)NCC(=O)N[C@@H](Cn1cc(P(=O)(O)O)nn1)C(=O)N[C@@H](C)C(=O)NCC(=O)N[C@@H](C)C(=O)NCC(N)=O); test: 3-pTza peptide dot blot array
T6 construct: also called AGAG-3-pTza-AGAG; A/G motif peptide (based on ACLY)
T6 peptide: AGAG[3‑pTza]AGAG-NH2
Procedure: (§1) The 3-pHis antibodies bound only the 3-pTza peptides and the 1-pHis antibodies bound only the 1-pTza peptides, regardless of sequence (FIG. 4A). Identical membranes were probed with 1-pHis mAbs as part of our screening process to select mAbs with the broadest sequence recognition (FIG. 4B). […] 3-pHis mAb SC39-4 was able to detect all 3-pTza peptides down to 800 pg; however, binding to the KCa3.1 peptide was relatively poor (100 ng). […] SC44 detected the A/G motif peptide (based on ACLY) and the immunizing peptide library down to 160 pg and 800 pg respectively, confirming its sequence bias.
(§2) pTza peptide dot blot arrays: 1-pTza, 3-pTza or His was incorporated into synthetic peptides of defined sequences from mammalian proteins with mapped pHis sites. The peptides used were as follows: ACLY-like H760 (AGAG-X-AGAG, SEQ ID NO: 62), PGAM H11 (VLIR-X-GESA, SEQ ID NO: 63), NME1 H118 (RNII-X-GSDS, SEQ ID NO: 64), Histone H4 H18 (GAKR-X-RKVL, SEQ ID NO: 65), KCa3.1 H358 (VRLK-X-RKLR, SEQ ID NO: 66) and GNB1 H266 (MTYS-X-DNII, SEQ ID NO: 67) where X=His, 1-pTza or 3-pTza. Peptides were dissolved in water at a stock concentration of 1 mg/ml. 1:5 serial dilutions (500, 100, 20, […] ng/ul) were prepared for each peptide and 1 ul of each dilution was spotted on nitrocellulose membrane and allowed to dry for 1-2 hr at RT. […] Immunoblotting was performed as described above.

[7] = target: T7, Peptide-2C (PGAM H11, 3-pTza) (mammalian, N-terminus assumed; SMILES …); test: 3-pTza peptide dot blot array
T7 construct: also called VLIR-3-pTza-GESA; PGAM peptide
T7 peptide: VLIR[3‑pTza]GESA-NH2
Procedure: as §1, §2

[8] = target: T8, Peptide-3C (NME1 H118, 3-pTza) (mammalian, N-terminus assumed; SMILES …); test: 3-pTza peptide dot blot array
T8 construct: also called RNII-3-pTza-GSDS
T8 peptide: RNII[3‑pTza]GSDS-NH2
Procedure: as §1, §2

[9] = target: T9, Peptide-4C (Histone H4 H18, 3-pTza) (mammalian, N-terminus assumed; SMILES …); test: 3-pTza peptide dot blot array
T9 construct: also called GAKR-3-pTza-RKVL
T9 peptide: GAKR[3‑pTza]RKVL-NH2
Procedure: as §1, §2

[10] = target: T10, mammalian SCS (succinyl-CoA synthetase), 3-pHis on H299 (mammalian, UniProt P53597 41-346, 3-phosphohistidine at H299); test: immunoblot of mammalian cell lysates
T10 construct: also called Phospho-SCS
Procedure: (§3) Immunoblotting with anti-pHis antibodies: In general, immunoblotting with anti-pHis antibodies was performed with modifications to standard procedures to help preserve pHis for detection. Buffers were adjusted to pH 8-9 to stabilize pHis and methods were modified to avoid heating samples. Protein samples were prepared in pH 8.8 sample buffer (5×=10% SDS, 250 mM Tris-HCl, pH 8.8, 0.02% Bromophenol blue, 50% glycerol, 50 mM EDTA, 500 mM DTT) for electrophoresis. Mammalian whole cell lysates were prepared by rinsing 70-100% confluent 10 cm² dishes twice with 5 ml cold TD buffer (TBS −/−, pH 8). Cells were scraped directly into 2× pH 8.8 sample buffer, incubated on ice and a cup horn sonicator was used (3-5×5 sec bursts) to disrupt cells and shear DNA. Lysates were clarified by centrifugation (14,000×g for 5-15 min at 4° C.) and analyzed immediately using freshly prepared Bis-Tris polyacrylamide minigels with a modified, pH 8.8 stacking gel and either 10% or 12.5% resolving gels. Electrophoresis buffer recipes were as follows: Running Buffer: (1×20 L, pH 8.5) 20 g SDS, 60 g Trizma Base, 288 g glycine, dH₂0 to 20 L, Transfer Buffer: (1×4 L, pH 8.5) 56.7 g glycine, 4 g SDS, 12 g Trizma Base, 800 ml MeOH, dH₂0 to 4 L. All electrophoresis steps were performed at 4° C. and samples were resolved at 90-100V for 2-3 hr. […]

[11] = target: T11, ACLY (ATP-citrate lyase), 3-pHis on H760 (mammalian, UniProt P53396 1-1101, 3-phosphohistidine at H760); test: immunoblot of mammalian cell lysates
T11 sequence (looked up): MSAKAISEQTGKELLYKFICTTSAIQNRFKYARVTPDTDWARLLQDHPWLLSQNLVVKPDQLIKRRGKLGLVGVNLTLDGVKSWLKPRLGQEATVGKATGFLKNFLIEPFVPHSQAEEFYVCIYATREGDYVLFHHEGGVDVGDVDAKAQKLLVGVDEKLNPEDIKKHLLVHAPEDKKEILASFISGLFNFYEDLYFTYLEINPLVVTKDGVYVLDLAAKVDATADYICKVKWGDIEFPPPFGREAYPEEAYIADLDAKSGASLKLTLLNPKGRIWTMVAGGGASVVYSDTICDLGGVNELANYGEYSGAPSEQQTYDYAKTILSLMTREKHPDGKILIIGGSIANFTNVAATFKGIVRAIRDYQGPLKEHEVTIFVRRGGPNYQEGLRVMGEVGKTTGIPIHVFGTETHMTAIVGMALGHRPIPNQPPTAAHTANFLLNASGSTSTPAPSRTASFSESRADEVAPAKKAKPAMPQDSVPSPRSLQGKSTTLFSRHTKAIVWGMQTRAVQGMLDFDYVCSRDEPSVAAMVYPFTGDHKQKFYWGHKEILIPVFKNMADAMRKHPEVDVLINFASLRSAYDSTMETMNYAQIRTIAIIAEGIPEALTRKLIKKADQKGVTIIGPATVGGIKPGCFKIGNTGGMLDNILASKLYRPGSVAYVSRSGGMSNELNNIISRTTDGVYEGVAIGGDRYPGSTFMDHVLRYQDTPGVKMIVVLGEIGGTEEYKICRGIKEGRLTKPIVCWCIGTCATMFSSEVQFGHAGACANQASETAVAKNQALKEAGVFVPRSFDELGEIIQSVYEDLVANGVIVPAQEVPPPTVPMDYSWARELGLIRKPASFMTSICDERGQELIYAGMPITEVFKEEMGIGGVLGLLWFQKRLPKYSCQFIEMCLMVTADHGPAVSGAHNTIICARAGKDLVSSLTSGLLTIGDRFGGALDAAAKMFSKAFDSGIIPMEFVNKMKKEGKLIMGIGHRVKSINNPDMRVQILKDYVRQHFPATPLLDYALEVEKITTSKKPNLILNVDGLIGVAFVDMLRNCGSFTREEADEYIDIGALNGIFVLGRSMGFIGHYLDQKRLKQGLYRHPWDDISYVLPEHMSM
Procedure: as §3

[12] = target: T12, phospho-PGAM (phosphoglycerate mutase with 3-pHis on H11) (human, UniProt P18669 1-254, 3-phosphohistidine at H11); test: immunoblot of HeLa and FLAG-NME1 293 cell lysates
T12 construct: Used both for the purified recombinant protein and for the endogenous protein in 293 cell lysates; also called pPGAM; in vitro phosphorylated PGAM
Procedure: FIGS. 6A-6E. 3-pHis Antibody Screening. (FIG. 6A) High throughput, slot blot screening of 3-pHis hybridoma subclones. Cell supernatants containing 3-pHis mAbs were screened as described using lysates from E. coli transformed with GST-PGAM. (FIG. 6B) Representative immunoblots using indicated subclones are shown. E. coli lysates identical to those used in ([…]) were treated with and without heating to 95° C. for 10 min to determine if the detected bands were heat-sensitive. Bacterial (FIG. 6B) and mammalian SCS (FIG. 6C) is detected by 3-pHis mAb SC44-8. (FIG. 6C) Mammalian cell lysates from HeLa and FLAG-NME1 293 cells were probed with mAb SC44-8. Phospho-SCS and ACLY, but not PGAM, is recognized by this mAb. (FIG. 6D) SCS H299 (SEQ ID NO: 69) is aligned with ACLY H760 (SEQ ID NO: 68) to highlight amino acids the flanking the pHis site are identical and have a G-pH-A-H-A motif that is different from the pHis site on PGAM at H11 (SEQ ID NO:70). […]
Immunoblotting with anti-pHis antibodies: In general, immunoblotting with anti-pHis antibodies was performed with modifications to standard procedures to help preserve pHis for detection. […] Lysates were clarified by centrifugation (14,000×g for 5-15 min at 4° C.) and analyzed immediately using freshly prepared Bis-Tris polyacrylamide minigels with a modified, pH 8.8 stacking gel and either 10% or 12.5% resolving gels.

T12 sequence (P18669 whole entry): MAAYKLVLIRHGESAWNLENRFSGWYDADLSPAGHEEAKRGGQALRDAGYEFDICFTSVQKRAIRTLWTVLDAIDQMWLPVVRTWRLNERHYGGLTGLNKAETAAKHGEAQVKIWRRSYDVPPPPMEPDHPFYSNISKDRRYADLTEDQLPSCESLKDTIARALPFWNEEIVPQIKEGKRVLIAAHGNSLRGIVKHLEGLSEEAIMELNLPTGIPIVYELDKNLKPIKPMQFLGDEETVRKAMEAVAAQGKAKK
T10 sequence (P53597 41-346): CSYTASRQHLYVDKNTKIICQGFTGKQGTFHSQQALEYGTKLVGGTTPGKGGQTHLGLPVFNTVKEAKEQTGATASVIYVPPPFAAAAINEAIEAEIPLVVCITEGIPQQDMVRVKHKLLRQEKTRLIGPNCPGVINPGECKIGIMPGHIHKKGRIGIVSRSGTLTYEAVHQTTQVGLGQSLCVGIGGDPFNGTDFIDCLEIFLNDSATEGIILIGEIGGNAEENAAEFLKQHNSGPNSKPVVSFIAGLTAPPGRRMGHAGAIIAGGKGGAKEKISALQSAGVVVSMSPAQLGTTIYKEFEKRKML

B1: 3-pHis mAb SC56-2 (antibody, V domains shown)
VH: SVKESEGGLIKPGGILTLTCTASGFSLSSYGFSWVRQAPGKGLEHIGYLHANGRAYYATWAKSRSTITRNTNLNTVTLQLTSLTAADTATYFCAKIGSVSDVAIWGPGTLVTVSS
VL: DPVMTQTPSSTSAAVGGTVTINCQSSESIYNNKNLAWYQQKPGQSPRRLIYSISTLASGVSSRFKGSGSGTQFTLTISDVQCDDAATYYCVGYYYSGGYYYSGSAAYYAFGGGTEVVVKG
notes: Rabbit hybridoma monoclonal IgG; also called SC56s (subclones of MC56)
B1: no binding [1]; no binding [2]; no binding [3]. B1: no binding [4]; no binding [5]; binds [6]. B1: binds [7]; binds [8]; binds [9].

B2: 3-pHis mAb SC44-8 (antibody, V domains shown)
VH: ESGRGLVQPGGSLTLTCTASGFSIDSYGFSWVRQAPGKGLEHIGYLTAGGRAFYASWAKSRSTITRNTNENTVTLKMTSLTAADTATYFCAKLGSGNPVAIWGPGTLVTVSS
VL: DPVMTPTPSFTSAAVGGTVTINCQSSQSVWRNKNLAWYQQKPGQPPKRLIYAIATLDSGVPSRFSGSGSGTQFTLTISDVQCDDAATYYCVGHYGSENDAYYAFGGGTEVVVKG
notes: Rabbit hybridoma monoclonal IgG; also called SC44s (subclones of MC44)
B2: no binding [1]; no binding [2]; no binding [3]. B2: no binding [4]; no binding [5]; binds [10]. B2: binds [11]; no binding [12].
